Target: T1, VSV L protein (vesicular stomatitis virus (endogenous …, UniProt P03523 1-2109))
T1 construct: also called catalytic unit of the VSV polymerase; polymerase
Test: co-sedimentation
Settings: partners not purified

T1 sequence (P03523 whole entry): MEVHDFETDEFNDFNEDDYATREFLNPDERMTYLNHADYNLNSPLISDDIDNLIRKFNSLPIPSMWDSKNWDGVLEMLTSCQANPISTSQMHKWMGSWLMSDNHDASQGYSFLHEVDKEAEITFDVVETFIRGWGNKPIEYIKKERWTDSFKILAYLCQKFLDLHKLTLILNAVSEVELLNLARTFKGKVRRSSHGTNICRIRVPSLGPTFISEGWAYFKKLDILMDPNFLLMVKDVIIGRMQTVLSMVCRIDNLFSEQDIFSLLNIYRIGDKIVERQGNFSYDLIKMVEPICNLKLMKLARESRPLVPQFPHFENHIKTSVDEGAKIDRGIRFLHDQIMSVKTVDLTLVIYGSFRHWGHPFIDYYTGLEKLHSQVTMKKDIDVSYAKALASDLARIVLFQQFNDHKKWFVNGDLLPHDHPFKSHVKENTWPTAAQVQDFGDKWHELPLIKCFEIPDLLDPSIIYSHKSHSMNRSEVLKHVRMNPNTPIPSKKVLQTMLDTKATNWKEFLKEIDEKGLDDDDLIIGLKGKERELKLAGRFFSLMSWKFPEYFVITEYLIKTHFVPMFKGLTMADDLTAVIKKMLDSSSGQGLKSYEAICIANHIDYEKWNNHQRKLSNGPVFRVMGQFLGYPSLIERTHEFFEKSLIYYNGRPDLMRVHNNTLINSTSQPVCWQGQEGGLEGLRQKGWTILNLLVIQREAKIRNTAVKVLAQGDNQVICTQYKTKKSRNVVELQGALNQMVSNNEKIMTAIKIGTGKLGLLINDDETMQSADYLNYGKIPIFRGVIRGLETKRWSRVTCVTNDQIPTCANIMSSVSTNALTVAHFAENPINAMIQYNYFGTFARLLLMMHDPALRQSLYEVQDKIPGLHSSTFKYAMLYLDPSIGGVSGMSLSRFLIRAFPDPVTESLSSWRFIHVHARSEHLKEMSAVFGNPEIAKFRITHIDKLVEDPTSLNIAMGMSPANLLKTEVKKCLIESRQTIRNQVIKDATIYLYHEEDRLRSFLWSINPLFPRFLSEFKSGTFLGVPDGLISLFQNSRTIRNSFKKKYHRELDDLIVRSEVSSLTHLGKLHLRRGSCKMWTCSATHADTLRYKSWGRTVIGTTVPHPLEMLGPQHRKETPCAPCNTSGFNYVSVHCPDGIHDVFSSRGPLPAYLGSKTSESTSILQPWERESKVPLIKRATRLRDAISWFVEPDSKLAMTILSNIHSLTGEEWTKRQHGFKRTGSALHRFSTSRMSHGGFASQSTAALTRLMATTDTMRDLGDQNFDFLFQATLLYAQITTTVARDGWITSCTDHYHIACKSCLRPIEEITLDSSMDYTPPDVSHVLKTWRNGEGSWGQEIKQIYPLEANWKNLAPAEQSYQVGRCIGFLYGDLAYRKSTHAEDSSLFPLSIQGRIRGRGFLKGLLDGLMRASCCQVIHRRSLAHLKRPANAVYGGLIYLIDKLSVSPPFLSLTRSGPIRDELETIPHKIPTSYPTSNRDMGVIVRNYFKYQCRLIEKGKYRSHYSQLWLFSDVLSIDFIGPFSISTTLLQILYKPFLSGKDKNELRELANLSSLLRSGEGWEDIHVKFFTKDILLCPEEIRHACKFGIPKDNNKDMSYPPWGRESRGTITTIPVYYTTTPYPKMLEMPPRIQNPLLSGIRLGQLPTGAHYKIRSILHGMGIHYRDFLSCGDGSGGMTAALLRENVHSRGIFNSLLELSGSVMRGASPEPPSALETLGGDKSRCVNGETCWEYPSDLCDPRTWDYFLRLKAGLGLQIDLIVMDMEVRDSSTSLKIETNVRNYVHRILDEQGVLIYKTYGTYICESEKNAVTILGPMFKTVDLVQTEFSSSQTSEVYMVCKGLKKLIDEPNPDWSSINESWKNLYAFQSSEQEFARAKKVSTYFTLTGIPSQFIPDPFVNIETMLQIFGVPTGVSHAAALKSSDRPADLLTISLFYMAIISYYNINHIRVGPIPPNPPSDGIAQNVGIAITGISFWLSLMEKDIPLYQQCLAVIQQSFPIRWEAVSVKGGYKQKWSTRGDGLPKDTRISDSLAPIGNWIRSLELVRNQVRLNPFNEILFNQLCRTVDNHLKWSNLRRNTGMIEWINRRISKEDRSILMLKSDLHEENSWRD

B1: full genome template (N-RNA) bound with P and L extracted from detergent-disrupted virions (complex)
chain 1: MSVTVKRIIDNTVIVPKLPANEDPVEYPADYFRKSKEIPLYINTTKSLSDLRGYVYQGLKSGNVSIIHVNSYLYGALKDIRGKLDKDWSSFGINIGKAGDTIGIFDLVSLKALDGVLPDGVSDASRTSADDKWLPLYLLGLYRVGRTQMPEYRKKLMDGLTNQCKMINEQFEPLVPEGRDIFDVWGNDSNYTKIVAAVDMFFHMFKKHECASFRYGTIVSRFKDCAALATFGHLCKITGMSTEDVTTWILNREVADEMVQMMLPGQEIDKADSYMPYLIDFGLSSKSPYSSVKNPAFHFWGQLTALLLRSTRARNARQPDDIEYTSLTTAGLLYAYAVGSSADLAQQFCVGDNKYTPDDSTGGLTTNAPPQGRDVVEWLGWFEDQNRKPTPDMMQYAKRAVMSLQGLREKTIGKYAKSEFDK
chain 2: MDNLTKVREYLKSYSRLDQAVGEIDEIEAQRAEKSNYELFQEDGVEEHTKPSYFQAADDSDTESEPEIEDNQGLYAQDPEAEQVEGFIQGPLDDYADEEVDVVFTSDWKPPELESDEHGKTLRLTSPEGLSGEQKSQWLSTIKAVVQSAKYWNLAECTFEASGEGVIMKERQITPDVYKVTPVMNTHPSQSEAVSDVWSLSKTSMTFQPKKASLQPLTISLDELFSSRGEFISVGGDGRMSHKEAILLGLRYKKLYNQARVKYSL
notes: also called whole genome template; copies: 1250 +
B1 showed a Kd of 0.02 nM.

Source: paper PMC4263359, “Vesicular Stomatitis Virus Polymerase's Strong Affinity to Its Template Suggests Exotic Transcription Models” (PLoS Computational Biology, 2014)
